Assay results: US10501502B2, “Allophycocyanin alpha-subunit evolved labeling proteins (smURFPs)” (The Regents of the University of California, priority 2016, dated 2019)

Columns and labels:
Type in all cases: cell-based
HEK293A cells [1] = assay: FP stability in HEK293A cells (cycloheximide); settings: for fold increase in smURFP fluorescence: HEK293A
Experimental: HEK293A cells were transfected with pCDNA3-smURFP-IRES-eGFP and incubated for 48 h. 50 μg/ml cycloheximide+25 μM BV, 5 μM BVMe2, or no chromophore was added and cells were imaged after 1, 10, 30, 60, 120, and 225 min. Fluorescence was fit to a single exponential decay (F=A [exp^−kt]), where F is fluorescence that varies as a function of time, A is the fit initial fluorescence, k is the rate of fluorescence decay (protein degradation), and t is time in min.

PC3 cells = assay: Photobleaching FP or FP fusions in mammalian cells; settings: for t50%, time to bleach for 50% emission intensity / A1, Double Exportential Decay Fit / A2, Double Exportential Decay Fit / A, Single Exponential Decay Fit / k1, Double Exportential Decay Fit / k2, Double Exportential Decay Fit / k, Single Exponential Decay Fit: PC3 cells; for t50%, time to bleach for 50% emission intensity: 25 μM BV or 1 μM BVMe2 for 4 h; for A1, Double Exportential Decay Fit / A2, Double Exportential Decay Fit / A, Single Exponential Decay Fit / k1, Double Exportential Decay Fit / k2, Double Exportential Decay Fit / k, Single Exponential Decay Fit: photobleaching; for mammalian cell photostability t50%: time to bleach 50% from an initial emission rate of 1,000 photons per s
Experimental: PC3 cells were transfected with 2 μg of circular DNA+5 μl Lipofectamine 2000 (Life Technologies) in 2 ml Opti-MEM (Life Technologies) for 4-5 h, transfection media was discarded, prewarmed growth media was added, and protein was produced for 48 h. 25 μM BV or 1 μM BVMe2 was incubated for 4 h. Cells were photobleached with continuous light exposure from a 150 W xenon arc lamp with eGFP EX/EM=495(10)/535(25) nm, tdTomato EX/EM=540(25)/595(50) nm, mCherry EX/EM=580(20)/[…] nm, and smURFP EX/EM=628(40)/680(30) nm focused with a 40×, 1.2 numerical aperture C-Apochromat oil-immersion lens on aZeiss Axiovert 200M inverted microscope. Photobleaching times were normalized to reflect an initial illumination intensity producing 1,000 photons per fluorescent molecule per second as previously described^37. Data was fit to a single exponential decay (F=A [exp^−kt]), where F is fluorescence that varies as a function of time, A is the fit normalized, initial fluorescence (should be 1), k is the rate of fluorescence decay (photobleaching), and t is time in s, or a double exponential decay (F=A1[exp^−k1^t]+A2[exp^−k2^t]), where F is fluorescence that varies as a function of time, A1 and A2 are the fit normalized, initial fluorescence (sum should be 1), k1 and k2 are the rates of fluorescence decay (photobleaching), and t is time in seconds, and data is shown in Table 6.

HEK293A cells [2] = assay: Fluorescence imaging of FPs in HEK293A cells with chromophore addition or HO-1 expression
Excerpt: smURFP codons were optimized for human cell expression, and the gene was created by GenScript. smURFP, TDsmURFP (created from mammalian-optimized smURFP), IFP1.4 (mammalian-optimized form^35), IFP2.0 (mammalian-optimized form^46), and iRFP713 (mammalian-optimized form^36) were PCR amplified using Phusion High-Fidelity DNA Polymerase (NEB) with primers containing 5′ HindIII and 3′ XhoI restriction enzyme sites. HindIII-HF and XhoI (NEB)-digested PCR fragments were gel purified (Zymoclean Gel DNA Recovery Kit) and were ligated (T4 DNA Ligase, Life Technologies) into a similarly digested pCDNA3-IRES-eGFP vector (bicistronic to express two FPs in the same cell). For creation of HO-1-expressing mammalian vec-tors, the Synechocystis HO-1 was used, and the codons were not optimized for mammalian expression. Synechocystis HO-1 was directly amplified from the pBAD vector using primers containing 5′ BsiWI and 3′ XbaI restriction enzyme sites. pCDNA3 smURFP, TDsmURFP, IFP1.4, IFP2.0, or iRFP713-IRES-eGFP vectors were digested with BsiWI and XbaI (NEB), dephosphorylated (SAP, Roche), gel purified (Zymoclean Gel DNA Recovery Kit), and ligated (T4 DNA Ligase, Life Technologies) with similarly digested, purified HO-1 PCR fragment. For creation of smURFP fusions, smURFP was PCR amplified using Phusion High-Fidelity DNA Polymerase (NEB) with primers containing 5′ AgeI and 3′ NotI restriction enzyme sites for N-terminal fusions or with primers containing 5′ AgeI and 3′ BspEI restriction enzyme sites for C-terminal fusions. mGeos2-VEL-ManII-N-10 (Addgene 57551) and Dronpa-PDHA1-N-10 (Addgene 57292) vectors were digested with AgeI and NotI (NEB) and mCherry-αTubulin-C-18 (Addgene 55148) and tdTomato-LaminB1-10 (Addgene 58107) were digested with AgeI and BspEI, dephosphorylated (SAP, Roche), gel purified (Zymoclean Gel DNA Recovery Kit), and ligated (T4 DNA Ligase, Life Technologies) with similarly digested, purified smURFP PCR fragment. HEK293A (Invitrogen, Life Technologies), HT1080 (ATCC), and PC3 (ATCC) cells were grown in Dulbecco's Modified Eagle's medium (DMEM, Corning), supplemented with 10% FBS (Atlanta Biologicals)+1×penicillin—streptomycin (Fisher Scientific), which is referred to as growth media, on poly-D-lysine-coated glass-bottom culture dishes (MatTek, No. P35G-0-14-C). The HEK cell line is listed in the ICLAC and NCBI biosample databases and is commonly misidentified as the HeLa cell line. For expression of exogenous fluorescent proteins, there is no problem if there is a contaminating cell line because no endogenous biology or therapeutic results are being determined. HEK293A cells were purchased from Invitrogen (Life Technologies), and all experiments are derived from the same expanded frozen stock without cell line authentication or mycoplasma detection. Cells were transfected using 2 μg of circular DNA+5 μl Lipofectamine 2000 (Life Technologies) in 2 ml Opti-MEM (Life Technologies) for 4-5 h, transfection media was discarded, and prewarmed growth media was added. Chromophores (5 mM in DMSO) were added at indicated concentrations to growth media, warmed for 10-15 min at 37° C., and added to cells. For multiple timepoints, incubations were staggered to maintain equivalent incubation. Prior to imaging, cells were washed 1×2 ml growth media, 2×2 ml imaging solution, and imaged in 2 ml imaging solution. Fluorescence imaging was performed on a Zeiss Axiovert 200M inverted microscope controlled by SlideBook software. FPs were imaged with the following settings: eGFP, EX/EM=495(10)/535(25) nm, tdTomato EX/EM=540(25)/595(50) nm; mCherry and mCardinal, EX/EM=580(20)/653(95) nm; smURFP and TDsmURFP, EX/EX=628(40)/680(30) nm; and IFP1.4, IFP2.0, and iRFP713, EX/EM=665(45)/725(50) nm. […]

B1: smURFP: small ultra-red fluorescent protein, SEQ ID NO: 13, homodimer, covalently attaches biliverdin (protein)
chain: MKTSEQRVNIATLLTENKKKIVDKASQDLWRRHPDLIAPGGIAFSQRDRALCLRDYGWFLHLITFCLLAGDKGPIESIGLISIREMYNSLGVPVPAMMESIRCLKEASLSLLDEEDANETAPYFDYIIKAMS
modifications: homodimer; biliverdin chromophore; smRUFP Variant Polypeptide
For B1, the “fold increase in smURFP fluorescence” value (HEK293A cells [1]; 5 μM BVMe2, 1 h) was 85 fold, the “fold increase in smURFP fluorescence” value (HEK293A cells [1]; 5 μM BVMe2, 3 h) was 85 fold and the “fold increase in smURFP fluorescence” value (HEK293A cells [1]; 5 μM BVMe2, 48 h) was 125 fold. For the same molecule, the “fold increase in smURFP fluorescence” value (HEK293A cells [1]; 25 μM BV, 3 h) was 13 fold, the “fold increase in smURFP fluorescence” value (HEK293A cells [1]; 25 μM BV, 48 h) was 27 fold and the “protein stability t50%” value (HEK293A cells [1]; BV exposure 3 h) was 30 h. The “protein stability t50%” value (HEK293A cells [1]; BVMe2 exposure 3 h) was 33 h, the “protein stability t50%” value (HEK293A cells [1]; HEK293A cells, cycloheximide) was 33 h and the “protein stability t50%” value (HEK293A cells [1]; continuously exposed to BV, cycloheximide) was 33 h. For the same molecule, the “protein stability t50%” value (HEK293A cells [1]; continuously exposed to BVMe2, cycloheximide) was 35 h, the “protein stability t50%” value (HEK293A cells [1]; without chromophore (apoprotein)) was 17 h and the “t50%, time to bleach for 50% emission intensity” value (PC3 cells) was 410 s. The “A1, Double Exportential Decay Fit” value (PC3 cells) was 0.23, the “A2, Double Exportential Decay Fit” value (PC3 cells) was 0.72 and the “A, Single Exponential Decay Fit” value (PC3 cells) was 0.75. For the same molecule, the “k1, Double Exportential Decay Fit” value (PC3 cells) was 0.00024 s⁻¹, the “k2, Double Exportential Decay Fit” value (PC3 cells) was 0.0022 s⁻¹ and the “k, Single Exponential Decay Fit” value (PC3 cells) was 0.0008 s⁻¹. For the same molecule, the “mammalian cell photostability t50%” value (PC3 cells) was 570 s, the “average time to bleach 50% emission, t50%” value (PC3 cells; with BV, mammalian cells (n=5)) was 570 s and the “average time to bleach 50% emission, t50%” value (PC3 cells; with BVMe2, mammalian cells (n=5)) was 340 s. The “brightness in cell culture compared with other FPs” value (HEK293A cells [2]) was “comparable brightness to eGFP and is brighter than mCherry, mCardinal, IFP1.4, IFP2.0, and iRFP713”, the “fold increase in fluorescence with HO-1+5-ALA+FeSO4” value (HEK293A cells [2]; HEK293A cells) was 7.7 fold and the “fold increase in fluorescence with expression of HO-1” value (HEK293A cells [2]; HEK293A cells) was 2.8 fold. For the same molecule, the “fold increase in fluorescence with 25 μM BV” value (HEK293A cells [2]; HEK293A cells, 3 h) was 4.7 fold, the “fold increase in fluorescence with 25 μM BVMe2 relative to 25 μM BV” value (HEK293A cells [2]; HEK293A cells, 3 h) was 18 fold and the “fold increase in fluorescence with 25 μM PCB relative to 25 μM BV” value (HEK293A cells [2]; HEK293A cells, 3 h) was 10 fold. For the same molecule, the “fluorescence relative to eGFP expressed from IRES” value (HEK293A cells [2]; HEK293A cells, in the presence of BVMe2) was “five-fold greater fluorescence”.

B2: smURFP + BVMe2: smURFP with a single biliverdin dimethyl ester chromophore (protein)
chain: MKTSEQRVNIATLLTENKKKIVDKASQDLWRRHPDLIAPGGIAFSQRDRALCLRDYGWFLHLITFCLLAGDKGPIESIGLISIREMYNSLGVPVPAMMESIRCLKEASLSLLDEEDANETAPYFDYIIKAMS
modifications: left off: small tags and cut ends
notes: smURFP with a single biliverdin dimethyl ester chromophore
In the case of B2, the “protein stability t50%” value (HEK293A cells [1]; HEK293A cells, cycloheximide) is reported as 35 h, the “t50%, time to bleach for 50% emission intensity” value (PC3 cells) is reported as 190 s and the “A1, Double Exportential Decay Fit” value (PC3 cells) is reported as 0.42. The “A2, Double Exportential Decay Fit” value (PC3 cells) was 0.57, the “A, Single Exponential Decay Fit” value (PC3 cells) was 0.73 and the “k1, Double Exportential Decay Fit” value (PC3 cells) was 0.020 s⁻¹. For the same molecule, the “k2, Double Exportential Decay Fit” value (PC3 cells) was 0.0012 s⁻¹, the “k, Single Exponential Decay Fit” value (PC3 cells) was 0.0015 s⁻¹ and the “mammalian cell photostability t50%” value (PC3 cells) was 340 s. The “fold brighter than IFP2.0 or iRFP713” value (HEK293A cells [2]; HEK293A cells) was 7 fold and the “fold increase in fluorescence relative to smURFP” value (HEK293A cells [2]; HEK293A cells, chromophore incubation 3 h) was > 32 fold.
